# From patent US6429305
# Target: growth hormone receptor on ZFL cells (zebrafish liver cell line) (zebrafish)
# Test: cell-based or functional assay
substance,measurement,value
human growth hormone (from UniProt P01241 27-217) (ligand),"increase in cell proliferation relative to no growth hormone added (MTS-formazan conversion assay, ZFL cells)",13.7%
